According to US20240117030A1 (Pfizer, published 2024):

Assays:
cynomolgus monkey IL-23 = cynomolgus monkey IL-23 (cynomolgus monkey, UniProt H6WS56 20-189); experiment: cell-based or functional assay
human IL-23 = target: T1, human IL-23 (human, UniProt Q9NPF7 20-189; P29460 23-328); experiment: cell-based or functional assay
T1 sequence (looked up) 1: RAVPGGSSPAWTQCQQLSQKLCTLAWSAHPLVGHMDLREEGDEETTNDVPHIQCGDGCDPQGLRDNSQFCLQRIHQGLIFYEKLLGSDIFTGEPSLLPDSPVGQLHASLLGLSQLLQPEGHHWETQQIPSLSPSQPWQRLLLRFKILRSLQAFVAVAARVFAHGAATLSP
T1 sequence (looked up) 2: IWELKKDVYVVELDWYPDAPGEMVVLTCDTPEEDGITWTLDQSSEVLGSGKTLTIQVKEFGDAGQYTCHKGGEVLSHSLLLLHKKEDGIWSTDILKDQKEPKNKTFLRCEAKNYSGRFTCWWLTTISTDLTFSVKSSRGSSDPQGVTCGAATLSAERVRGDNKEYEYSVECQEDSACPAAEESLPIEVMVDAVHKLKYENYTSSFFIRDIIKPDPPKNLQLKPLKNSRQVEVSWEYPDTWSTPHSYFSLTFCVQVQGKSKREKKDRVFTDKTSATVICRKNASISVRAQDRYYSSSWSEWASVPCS

cynomolgus monkey IL-12 = target: T2, cynomolgus monkey IL-12 (cynomolgus monkey, UniProt A0A2K5V4L8 57-253; G7P6S2 23-328); experiment: cell-based or functional assay
T2 sequence (p35): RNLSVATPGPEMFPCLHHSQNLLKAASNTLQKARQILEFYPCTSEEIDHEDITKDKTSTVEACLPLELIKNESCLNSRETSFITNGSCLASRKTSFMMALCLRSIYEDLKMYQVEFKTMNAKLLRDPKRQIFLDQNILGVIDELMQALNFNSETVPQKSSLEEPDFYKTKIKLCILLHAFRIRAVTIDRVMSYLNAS
T2 sequence (p40): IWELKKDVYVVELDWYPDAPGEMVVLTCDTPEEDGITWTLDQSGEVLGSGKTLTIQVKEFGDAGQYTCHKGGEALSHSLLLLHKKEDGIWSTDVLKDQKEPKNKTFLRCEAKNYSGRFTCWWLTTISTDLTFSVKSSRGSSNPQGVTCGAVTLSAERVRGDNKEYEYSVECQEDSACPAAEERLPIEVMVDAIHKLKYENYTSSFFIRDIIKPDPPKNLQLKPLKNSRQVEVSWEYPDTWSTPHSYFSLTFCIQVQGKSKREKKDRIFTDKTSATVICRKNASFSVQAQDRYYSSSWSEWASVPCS

human IL-13 = human IL-13 (human, UniProt P35225 35-146); experiment: cell-based or functional assay
human IL-13, sequence (P35225 35-146 limits assumed, form in doubt): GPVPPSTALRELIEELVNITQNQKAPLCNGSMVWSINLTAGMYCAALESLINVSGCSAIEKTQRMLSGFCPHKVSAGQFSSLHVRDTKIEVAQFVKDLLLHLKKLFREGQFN

human IL-12 = target: T3, human IL-12 (human, UniProt P29459 23-219; P29460 23-328); experiment: cell-based or functional assay
T3 sequence (looked up) 1: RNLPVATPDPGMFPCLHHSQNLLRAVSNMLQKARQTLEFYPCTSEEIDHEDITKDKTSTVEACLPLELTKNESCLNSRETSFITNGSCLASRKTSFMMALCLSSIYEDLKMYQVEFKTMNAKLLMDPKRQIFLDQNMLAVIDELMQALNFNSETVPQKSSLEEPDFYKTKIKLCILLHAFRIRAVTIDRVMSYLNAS
T3 sequence (looked up) 2: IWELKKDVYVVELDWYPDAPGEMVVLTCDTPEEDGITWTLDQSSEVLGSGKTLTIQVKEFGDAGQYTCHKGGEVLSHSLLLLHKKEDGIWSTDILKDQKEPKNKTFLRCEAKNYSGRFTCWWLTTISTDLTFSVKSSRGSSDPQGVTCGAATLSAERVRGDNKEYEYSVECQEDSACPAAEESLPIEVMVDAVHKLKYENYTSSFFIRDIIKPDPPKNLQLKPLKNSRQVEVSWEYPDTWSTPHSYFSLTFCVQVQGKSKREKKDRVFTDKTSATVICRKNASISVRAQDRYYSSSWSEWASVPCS

cynomolgus monkey IL-13 = cynomolgus monkey IL-13 (cynomolgus monkey, UniProt Q0PW92 19-132); experiment: cell-based or functional assay
cynomolgus monkey IL-13, sequence (Q0PW92 entry or part of it limits assumed): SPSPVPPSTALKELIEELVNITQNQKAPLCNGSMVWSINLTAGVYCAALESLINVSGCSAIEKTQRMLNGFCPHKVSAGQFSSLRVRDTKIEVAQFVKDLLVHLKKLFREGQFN

human IL-4 = target: T4, human IL-4 (human, UniProt P05112 25-153); experiment: cell-based or functional assay
T4 sequence (looked up): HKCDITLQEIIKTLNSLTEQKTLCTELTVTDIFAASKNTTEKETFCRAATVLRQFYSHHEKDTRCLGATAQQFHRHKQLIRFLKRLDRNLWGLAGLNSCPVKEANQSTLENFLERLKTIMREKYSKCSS

cynomolgus monkey IL-4 = target: T5, cynomolgus monkey IL-4 (cynomolgus monkey, UniProt P79339 25-153); experiment: KinExA, fixed antigen
T5 construct: mature; also called cy IL-4; cyno IL-4
T5 sequence (looked up): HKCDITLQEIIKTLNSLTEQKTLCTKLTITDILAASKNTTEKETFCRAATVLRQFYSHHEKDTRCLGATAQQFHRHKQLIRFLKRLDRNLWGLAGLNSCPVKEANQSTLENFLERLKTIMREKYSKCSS
Description: Samples were prepared in PBS containing 0.1% sodium azide and 1.0 mg/ml BSA. The fixed antigen assay method was used to determine binding affinity. […] Each trispecific and IL-4 cytokine were equilibrated for at least 72 hours at room temperature, then passed through a flow cell containing Polymethylmethacrylate (PMMA) beads coated with anti-hIL-4 Ab-0002 (Pfizer) that contains the same IL-4 binding domain as the trispecifics. […] Data analysis was performed with KinExA Pro software version 4.3.11 (Sapidyne). […] The ‘drift correction’ fitting option was used when responses varied between replicate injections. Two curves were obtained in independent experiments and analyzed using the ‘n-curve analysis’ tool to obtain global best fit values for the KD and active concentration of IL-4 cytokine. The software reports each best fit value along with a 95% confidence interval.
Samples were prepared in PBS containing 0.1% sodium azide and 1.0 mg/ml BSA. A fixed antigen assay method was used to determine binding affinity.

- fold difference in potency between human and cynomolgus monkey IL-23, Kit-225 assay (cynomolgus monkey IL-23): < 2 fold
- fold less potent than p40-0003, Kit-225 pSTAT3 assay (human IL-23): 2.6 fold
- fold less potent than p40-0003, whole blood pSTAT3 assay (human IL-23): 2.4 fold
- fold difference in potency between human and cynomolgus monkey IL-12, Kit-225 assay (cynomolgus monkey IL-12): < 2 fold
- fold IL-13 neutralization activity over dupilumab (monocyte CD23 bioassay) (human IL-13): 8.9 fold
- fold lower potency than IL13-0001 (monocyte CD23 bioassay) (human IL-13): ~2.4 fold
- fold less potent than p40-0003, Kit-225 pSTAT4 assay (human IL-12): 2.9 fold
- fold less potent than p40-0003, whole blood pSTAT4 assay (human IL-12): 1.5 fold
- fold reduced neutralization compared to the human cytokine (monocyte CD23 bioassay) (cynomolgus monkey IL-13): ~4 fold
- fold IL-4 neutralization activity over dupilumab (monocyte CD23 bioassay) (human IL-4): ~10 fold
- fold lower potency than mAb IL4-1040 (monocyte CD23 bioassay) (human IL-4): ~3.2 fold
- fold of the human IL-4 affinity value (cynomolgus monkey IL-4): ≤ 1.2 fold
B1: IL413P40-0705 (trispecific antibody)
heavy: EVQLVQSGAEVKKPGESLKISCKGSGYSFTTYWLGWVRQMPGKGLDWIGIMSPVDSDIRYSPSFQGQVTMSVDKSITTAYLQWNSLKASDTAMYYCARRRPGQGYFDFWGQGTLVTVSSASTKGPSVFPLAPSSKSTSGGTAALGCLVKDYFPEPVTVSWNSGALTSGVHTFPAVLQSSGLYSLSSVVTVPSSSLGTQTYICNVNHKPSNTKVDKKVEPKSCRKTHTCPPCPAPEAAGAPSVFLFPPKPKDTLMISRTPEVTCVVVDVSHEDPEVKFNWYVDGVEVHNAKTKPREEQYNSTYRVVSVLTVLHQDWLNGKEYKCKVSNKALPAPIEKTISKAKGQPREPQVYTLPPSREEMTKNQVSLTCLVKGFYPSDIAVEWESNGQPENNYKTTPPVLDSDGSFFLYSRLTVDKSRWQQGNVFSCSVLHEALHSHYTQKSLSLSPGK
chain 1: DIQMTQSPSSLSASVGDRVTITCKASESVDHFGWSLVHWYQQKPGKAPKLLIYRASNLESGVPSRFSGSGSGTDFTLTISSLQPEDFATYYCQQSNEDPWTFGGGTKVEIKRTVAAPSVFIFPPSDEQLKSGTASVVCLLNNFYPREAKVQWKVDNALQSGNSQESVTEQDSKDSTYSLSSTLTLSKADYEKHKVYACEVTHQGLSSPVTKSFNRGECGGGGSEVTLRESGPALVKPTQTLTLTCTFSGFSLSNFGEGLSWIRQPPGKGLEWLAHIYWDDDKRYNPSLKSRLTISKDTSRNQVVLTMTNMDPVDTATYYCARRETVFYWYFDVWGQGTTVTVSSASTKGPSVFPLAPSSKSTSGGTAALGCLVKDYFPEPVTVSWNSGALTSGVHTFPAVLQSSGLYSLSSVVTVPSSSLGTQTYICNVNHKPSNTKVDKKVEPKSCEKTHTCPPCPAPEAAGAPSVFLFPPKPKDTLMISRTPEVTCVVVDVSHEDPEVKFNWYVDGVEVHNAKTKPREEQYNSTYRVVSVLTVLHQDWLNGKEYKCKVSNKALPAPIEKTISKAKGQPREPQVYTLPPSREEMTKNQVSLTCEVKGFYPSDIAVEWESNGQPENNYKTTPPVLDSDGSFFLYSKLTVDKSRWQQGNVFSCSVLHEALHSHYTQKSLSLSPGK
light 1: not shown
light 2: DIQMTQSPSSLSASVGDRVTITCRASQSVDEEGDSYMNWYQQKPGKAPKLLIYAASNLESGVPSRFSGSGSGTDFTLTISSLQPEDFATYYCQQSNKDPPTFGGGTKVEIKRTVAAPSVFIFPPSDEQLKSGTASVVCLLNNFYPREAKVQWKVDNALQSGNSQESVTEQDSKDSTYSLSSTLTLSKADYEKHKVYACEVTHQGLSSPVTKSFNRGEC
chain 2: EVQLVESGGGLVQPGGSLRLSCAASGFTFSSYAMSWVRQAPGKGLEWVASISSGDTTYYPDSVKGRFTISRDNAKNSLYLQMNSLRAEDTAVYYCARNEGYYFGLTLWGQGTLVTVSSASTKGPSVFPLAPSSKSTSGGTAALGCLVKDYFPEPVTVSWNSGALTSGVHTFPAVLQSSGLYSLSSVVTVPSSSLGTQTYICNVNHKPSNTKVDKKVEPKSC
notes: EE/RR, LS; also called IL134P40-0705; Tri-Fab-Fc IL413p40-0705
